Data reported in patent publication US20210388087A1 (Chugai, published 2021).
Positions count from the first letter of the chain named. Numbers in names are those of the source.

T1: Human CD3eg linker (human)
T1 construct: single-chain construct; also called recombinant human CD3
T1 chain: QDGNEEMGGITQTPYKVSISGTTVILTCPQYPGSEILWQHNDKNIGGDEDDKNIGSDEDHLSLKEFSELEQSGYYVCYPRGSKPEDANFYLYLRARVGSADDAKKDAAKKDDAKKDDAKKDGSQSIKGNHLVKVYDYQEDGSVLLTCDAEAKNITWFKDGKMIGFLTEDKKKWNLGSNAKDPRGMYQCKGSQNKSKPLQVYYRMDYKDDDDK

B1: dBBDu183H P61V/dBBDu072L (antibody, name in Kabat numbering, V domains shown)
VH: QVQLVESGGGLVQPGRSLRLSCAASGFTFSNAWMHWVRQAPGKGLEWVAQIKDKGNAYAAYYAVSVKGRFTISRDDSKNSIYLQMNSLKTEDTAVYYCHYVHYASASTVLPAFGVDAWGQGTTVTVSS
VL: DIVMTQSPLSLPVTPGEPASISCQASQELVHMNRNTYLHWYQQKPGQAPRLLIYKVSNRFPGVPDRFSGSGSGTDFTLKISRVEAEDVGVYYCAQGTSVPFTFGQGTKLEIK
B2: dBBDu183H A100fF/dBBDu072L (antibody, name in Kabat numbering, V domains shown)
VH: B1 VH with V64P, A112F
VL: B1 VL
B3: dBBDu183H A100E/dBBDu072L (antibody, name in Kabat numbering, V domains shown)
VH: B1 VH with V64P, A106E
VL: B1 VL
B4: dBBDu183H A100F/dBBDu072L (antibody, name in Kabat numbering, V domains shown)
VH: B1 VH with V64P, A106F
VL: B1 VL
B5: dBBDu183H A100K/dBBDu072L (antibody, name in Kabat numbering, V domains shown)
VH: B1 VH with V64P, A106K
VL: B1 VL
B6: dBBDu183H A98Y/dBBDu072L (antibody, name in Kabat numbering, V domains shown)
VH: B1 VH with V64P, A104Y
VL: B1 VL
B7: dBBDu183H A100G/dBBDu072L (antibody, name in Kabat numbering, V domains shown)
VH: B1 VH with V64P, A106G
VL: B1 VL
B8: dBBDu183H A98S/dBBDu072L (antibody, name in Kabat numbering, V domains shown)
VH: B1 VH with V64P, A104S
VL: B1 VL
B9: dBBDu183H A100R/dBBDu072L (antibody, name in Kabat numbering, V domains shown)
VH: B1 VH with V64P, A106R
VL: B1 VL
B10: dBBDu183H A100T/dBBDu072L (antibody, name in Kabat numbering, V domains shown)
VH: B1 VH with V64P, A106T
VL: B1 VL
B11: dBBDu183H A100fD/dBBDu072L (antibody, name in Kabat numbering, V domains shown)
VH: B1 VH with V64P, A112D
VL: B1 VL
B12: dBBDu183H A98T/dBBDu072L (antibody, name in Kabat numbering, V domains shown)
VH: B1 VH with V64P, A104T
VL: B1 VL
B13: dBBDu183H A100fG/dBBDu072L (antibody, name in Kabat numbering, V domains shown)
VH: B1 VH with V64P, A112G
VL: B1 VL
B14: dBBDu183H A98F/dBBDu072L (antibody, name in Kabat numbering, V domains shown)
VH: B1 VH with V64P, A104F
VL: B1 VL
B15: dBBDu183H A98G/dBBDu072L (antibody, name in Kabat numbering, V domains shown)
VH: B1 VH with V64P, A104G
VL: B1 VL
B16: dBBDu183H A100Q/dBBDu072L (antibody, name in Kabat numbering, V domains shown)
VH: B1 VH with V64P, A106Q
VL: B1 VL
B17: dBBDu183H A100W/dBBDu072L (antibody, name in Kabat numbering, V domains shown)
VH: B1 VH with V64P, A106W
VL: B1 VL
B18: dBBDu183H A100fK/dBBDu072L (antibody, name in Kabat numbering, V domains shown)
VH: B1 VH with V64P, A112K
VL: B1 VL
B19: dBBDu183H A98K/dBBDu072L (antibody, name in Kabat numbering, V domains shown)
VH: B1 VH with V64P, A104K
VL: B1 VL
B20: dBBDu183H A100Y/dBBDu072L (antibody, name in Kabat numbering, V domains shown)
VH: B1 VH with V64P, A106Y
VL: B1 VL
B21: dBBDu183H A100D/dBBDu072L (antibody, name in Kabat numbering, V domains shown)
VH: B1 VH with V64P, A106D
VL: B1 VL
B22: dBBDu183H A98D/dBBDu072L (antibody, name in Kabat numbering, V domains shown)
VH: B1 VH with V64P, A104D
VL: B1 VL
B23: dBBDu183H A100H/dBBDu072L (antibody, name in Kabat numbering, V domains shown)
VH: B1 VH with V64P, A106H
VL: B1 VL
B24: dBBDu183H A100fH/dBBDu072L (antibody, name in Kabat numbering, V domains shown)
VH: B1 VH with V64P, A112H
VL: B1 VL
B25: dBBDu183H A98R/dBBDu072L (antibody, name in Kabat numbering, V domains shown)
VH: B1 VH with V64P, A104R
VL: B1 VL
B26: dBBDu183H A98H/dBBDu072L (antibody, name in Kabat numbering, V domains shown)
VH: B1 VH with V64P, A104H
VL: B1 VL
B27: dBBDu183H A100fE/dBBDu072L (antibody, name in Kabat numbering, V domains shown)
VH: B1 VH with V64P, A112E
VL: B1 VL
B28: dBBDu183H A98E/dBBDu072L (antibody, name in Kabat numbering, V domains shown)
VH: B1 VH with V64P, A104E
VL: B1 VL
B29: dBBDu183H A100fN/dBBDu072L (antibody, name in Kabat numbering, V domains shown)
VH: B1 VH with V64P, A112N
VL: B1 VL
B30: dBBDu183H A98W/dBBDu072L (antibody, name in Kabat numbering, V domains shown)
VH: B1 VH with V64P, A104W
VL: B1 VL
B31: dBBDu183H A98V/dBBDu072L (antibody, name in Kabat numbering, V domains shown)
VH: B1 VH with V64P, A104V
VL: B1 VL
B32: dBBDu183H A100N/dBBDu072L (antibody, name in Kabat numbering, V domains shown)
VH: B1 VH with V64P, A106N
VL: B1 VL
B33: dBBDu183H A98Q/dBBDu072L (antibody, name in Kabat numbering, V domains shown)
VH: B1 VH with V64P, A104Q
VL: B1 VL
B34: dBBDu183H A98N/dBBDu072L (antibody, name in Kabat numbering, V domains shown)
VH: B1 VH with V64P, A104N
VL: B1 VL
B35: dBBDu183H A100S/dBBDu072L (antibody, name in Kabat numbering, V domains shown)
VH: B1 VH with V64P, A106S
VL: B1 VL
B36: dBBDu183H A100V/dBBDu072L (antibody, name in Kabat numbering, V domains shown)
VH: B1 VH with V64P, A106V
VL: B1 VL
B37: CE115HA000/GLS3000 Y96F (antibody, IgG1, name in Kabat numbering, V domains shown)
VH: QVQLVESGGGVVQPGRSLRLSCAASGFTFSNAWMHWVRQAPGKGLEWVAQIKAKSNNYATYYAESVKGRFTISRDDSKNSLYLQMNSLKTEDTAVYYCRYVHYGAYYGVDAWGQGTTVTVSS
VL: B1 VL with Q24R, A25S, E28S, M32S, P61S, A94G, S98Q
notes: one-arm IgG1
B38: CE115HA000/GLS3000 Y96D (antibody, IgG1, name in Kabat numbering, V domains shown)
VH: B37 VH
VL: B1 VL with Q24R, A25S, E28S, M32S, P61S, A94G, S98Q, F101D
notes: one-arm IgG1
B39: CE115HA000/GLS3000 Y96E (antibody, IgG1, name in Kabat numbering, V domains shown)
VH: B37 VH
VL: B1 VL with Q24R, A25S, E28S, M32S, P61S, A94G, S98Q, F101E
notes: one-arm IgG1
B40: CE115HA000/GLS3000 Y96H (antibody, IgG1, name in Kabat numbering, V domains shown)
VH: B37 VH
VL: B1 VL with Q24R, A25S, E28S, M32S, P61S, A94G, S98Q, F101H
notes: one-arm IgG1
B41: CE115HA000/GLS3000 Y96L (antibody, IgG1, name in Kabat numbering, V domains shown)
VH: B37 VH
VL: B1 VL with Q24R, A25S, E28S, M32S, P61S, A94G, S98Q, F101L
notes: one-arm IgG1
B42: CE115HA000/GLS3000 Y32P (antibody, IgG1, name in Kabat numbering, V domains shown)
VH: B37 VH
VL: B1 VL with Q24R, A25S, E28S, M32S, Y37P, P61S, A94G, S98Q, F101Y
notes: one-arm IgG1
B43: CE115HA000/GLS3000 Y32D (antibody, IgG1, name in Kabat numbering, V domains shown)
VH: B37 VH
VL: B1 VL with Q24R, A25S, E28S, M32S, Y37D, P61S, A94G, S98Q, F101Y
notes: one-arm IgG1
B44: CE115HA000/GLS3000 Y32F (antibody, IgG1, name in Kabat numbering, V domains shown)
VH: B37 VH
VL: B1 VL with Q24R, A25S, E28S, M32S, Y37F, P61S, A94G, S98Q, F101Y
notes: one-arm IgG1

Target: T1, Human CD3eg linker
Assay: SPR, vs unmutated H183/L072

Row | Binder | fold change of affinity [fold]
1 | B1 | 1.8
2 | B2 | 1.1
3 | B3 | 0.5
4 | B4 | 1.4
5 | B5 | 1.9
6 | B6 | 25.1
7 | B7 | 1.4
8 | B8 | 1
9 | B9 | 2.1
10 | B10 | 0.9
11 | B11 | 0.4
12 | B12 | 2
13 | B13 | 1.5
14 | B14 | 12.1
15 | B15 | 1.4
16 | B16 | 0.8
17 | B17 | 1.9
18 | B18 | 1.4

Row | Binder | fold change of affinity [fold]
19 | B19 | 4.6
20 | B20 | 1.7
21 | B21 | 0.5
22 | B22 | 0.4
23 | B23 | 1.2
24 | B24 | 1.2
25 | B25 | 2.7
26 | B26 | 5.9
27 | B27 | 0.5
28 | B28 | 0.3
29 | B29 | 1.3
30 | B30 | 7
31 | B31 | 4.7
32 | B32 | 0.8
33 | B33 | 0.7
34 | B34 | 1.5
35 | B35 | 1.1
36 | B36 | 1.2

Each binder was assayed against T2, CD3 epsilon homodimer protein (UniProt P07766 23-126) (assay: SPR, antibody over immobilised CD3e homodimer;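 further: SPR at 25 °C with CD3 epsilon homodimer amine-coupled to a CM4 sensor chip and antibody flowed over as analyte in HBS-EP+ running buffer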).
T2 construct: also called CD3 (CD3 epsilon)
T2 sequence (P07766 23-126): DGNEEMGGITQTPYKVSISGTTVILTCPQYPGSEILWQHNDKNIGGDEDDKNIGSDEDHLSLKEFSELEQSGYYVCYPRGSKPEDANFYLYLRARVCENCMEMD

Row | Binder | KD ratio to GLS3000
37 | B37 | 0.86
38 | B38 | 40.9
39 | B39 | 46.8
40 | B40 | 80.3
41 | B41 | 1.84
42 | B42 | 62
43 | B43 | 25.9
44 | B44 | 4.51
